# According to the domain aggregation screens of Martell et al. (2025):
# Test: soluble fraction after stress (log2 fold change); higher = more stays soluble; pooled small domains, quantitative proteomics
# Details: stress: 50 degC
# Outline: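 The stress applied to every library was 50°C. These custom libraries of small protein domains were pooled and measured at high throughput with quantitative proteomics as the read-out. Aggregation propensity is expressed as the base-two logarithm of the fold change in how much of each protein remains soluble. The higher the value, the more of that protein stays in solution.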
row,Sequence,soluble fraction (log2)
1,HMEKRLDYTFGLNKEQLLYLTKSIKDGDFYNVSFIDGTEKKLNRVGSTKEVHKYVNFLMTNDGIVKK,0.0518
2,HMGTDGLKDIVLEILKEHPNQLAELIDGKQKVLGFLVGQVMKKTNGAANPKEVNEIIQGEIKK,-0.0707
3,HMGKELTVPDVVGQNYVSAQEKLIAGGFQVEVADSVYDSRYGRGVVVDQNPHKDTRVKPGRLIYVTVNA,-0.0999
4,HMGTPSAEELAFSAQKGNAVMRIMEIREKYIENGGQISDEERNEIERLIAIYYPKASIFDYLPMMG,-0.136
5,HMRVDDITDTILNVLKEQGGFISVTDKSSPETINKLFGVSKKTYKKAIGAIYRKKLIIIEDDGIRLNS,-1.84
6,HMSVADNALSRQAIESRIALFIQNEDPNHPRSDADIQKELAQAGVVISRRAITKYRNHLHIPSASLRRR,-1.03
7,HMGNSRNDQDLQTQIIKILAEGPASSRTLIETLTIEDEAALLKTLKRLLMNKKISLTPSNLYKL,-0.487
8,HMNGAAAEQARKQLMTALKASEFIAQDKLDEWLDALALPQEKRSAIIDAVDELDYEEAISELEN,-0.0176
9,HMGLDMSLEREQHRALREASQWYARLADEQVDSDAERAWRHWVAADEANQRAWQYIEAVSQRFDG,-0.315
10,HMSSSLDQLTVREREILAQVSRGLSNKAIARELGISHDTVKLHVRHILSKLGFSSRVEAAVFAIEHRIG,-1.72
11,HMAVFSKKQIFDTAFALFESKGLEAITARNLGKALSSSPAPIYAHYSSITELKNELISVAKDR,-2.25
12,HMSFPDTYFKGNKVIGLSYNDLKKFLNNAGYSKFDEEVEEWGEKRVSIEDDMVDFYLEDDKVVSI,-0.233
13,HMFIEPPSLEELERRLRGRGTETDDVVDMRMRTALVELSQKMEYDYRLVNDDLDEATRQLVAYVNEIAEQ,0.0568
14,HMIDFTHEDIERLWNAIVHYVPERQKSDMAIDFIKSLEDIGVEHDEIKASAEYDPKLEEAINTVY,-0.352
15,HMFDFMVLGQAIKKARESKEMTREQLAEILDVAPRHIQSIENEGQYPSFPLFIRLVTMFNISVDQY,-1.92
16,HMELDIGKKAIVIEKIDPEAGTGRVRIEGVDWGAKTADSSVIEKGETVVVKAKGAAFVTVAK,0.18
17,HMTVPAGIVLSSIRQDGDVLHIRGTAQSTERLNFFRNSFSASWGSPAQNGKRKADPVTGLVDFTISLK,-0.677
18,HMNKLKALREEQGLSMMEIAKQLNMPYTTYVNYEKGTREPNSEMLIKFSKFFNVTIDYLIGNSEQKN,-0.502
19,HMGTPEQVVVSSVLKETNEIVLKWPADGFMAKYKMDNLNLNFEPVHGQGVMGYFIGSRLIKLELV,-0.251

row,Sequence,soluble fraction (log2)
1,HMDGASLLDIDGDGKVTPTIDGLLLMRWQFGTRGAALIGGISFPAGALRTTVNAIELHMRRLSETT,-0.844
2,HMREPDPELTASIKSMAESNDQSERLVALAQLSEQRAVDPEVADQILLIALLDEDPIIRGQAVYA,0.264
3,HMAYSEEERNLIRSRLKDVAAALFKEKGIRDTNIDEIYTPVGISKTFFYSFFPSKAVLAIAIMK,0.0382
4,HMPSSAYGPYKNVFLSNSELTKLKNELPTSWEHYINRLSEYMRSTGRQYQSHAATILRWAATDRNS,-0.139
5,HMSIEIIEITSNSSPKNLSEIIDIDATQIVADLMGLGIMKAIDTPLENSEIEQLLEKYNLIAEFVE,-1.47
6,HMAPPPPEGYIHRWIRESVMGFDDKKNLSARIREGFELVRAEEYPDYEAPTVMDGKHAGVIANGGLLLARF,-0.148
7,HMIPPGTITIEGAITKVPVFLDGKQIGTVPLTKEDVEPGKYRIRVLGVGRVITIDPGEKENVLFSGEDLGL,-0.142
8,HMNEIYHQIKVDNVSDDDISLFQYSGIEFDHADYRRGEYIEFAISNRDLSILNNLGYEYQVVHH,-0.757
9,HMNETLKQIRINALQYSEKDMATKLGLPLSEYKEIENDKPLNFTLLIRLSQAVGKTIDDLLNAQ,0.0115
10,HMKVQEVDYGTFLTMVDEGKVNQVDIENSKQITFNTKGDKNKVYITGQVNDPELVNRLYKAGVEFSQEIP,0.0729
11,HMDKSFYETFEKIGHGDFDKGLNHVWQHANDGNGTATLLLSKLFLEFGDLDNFEKYLNISAEQSNPVAMKI,-0.305
12,HMNYDPEEKITQIRTMLEIHSRIEFNEIITPATRRGEIIIIFLALLHMIKRGYIVVRQHRLFGDITIFARD,-0.152
13,HMKRIFEKKVVTESLNGLRLDKAAATLFADFSRNELGQWIKDEALLVNGKAKKVKEKVSEGDVLALDVELI,0.0881
14,HMGNIYKALLGKLEKQLGFLPEGTKLPPEQELAEKFGVSKPTLRRALAELAVRGIIVKQNGIGSVVAGS,-0.142
15,HMENNIPANIKALIISYVNQNYPGAVIHSIERNSNGTYDVEIYYNNREYDLLFDAQGNFISGNVDDQ,0.0611
16,HMELLPAERRQQLVDWFKSNQAGTSQDLARMFGISVSTIRRDLDLLASEGLVKRTHGGAVSIR,0.0027
17,HMGAVDIATARQLISEIGLPIMLKAEGGGGGRGIFAIHNEAELEDAFFKASTMAQASFGNPRLFVEKF,-0.228
18,HMNSEAVQNVIDKISALPDDITAKAKSQIEEARAAYEALSDSEKARVTNYSTLVAAEKKLASVVKD,0.325
19,HMGHKKLTIELQDEIIVLPKELEKYNLTVSDDKTSLIYTYKSRGEKTGITDLLRDIKDAGLRLKDLITEQ,0.434
